No end group written: not given here.
Key:
Type in all cases: in vivo, human
[1] = system: tumor microenvironment (TME) in pancreatic cancer; assay: Modulation of the TME in paired tumor biopsies by multiplex ion beam image analysis, pancreatic cancer; conditions: 8 pairs of pancreatic cancer biopsies from Parts 1 & 2
Method: FIG. 5A and FIG. 5B are charts showing that VT1021 modulates the TME in pancreatic cancer.
In the “expansion stage” of the VT1021-01 Study, subjects diagnosed with recurrent GBM, pancreatic cancer, ovarian cancer and other solid tumors were enrolled. They were treated with VT1021 at 11.8 mg/kg, twice weekly by IV infusion. The blood samples were collected from the clinical study at pre-treatment, 0, 2, 4, 6 hours post treatment to measure the levels of VT1021 (FIG. 2). The tumor biopsy samples prior to treatment and during treatment were collected from the clinical study to measure expression levels of biomarkers including CD36 and CD47, as well as cell surface markers for immune cell populations in the TME by immunohistochemistry assays (FIG. 3, FIG. 4, FIG. 5). The correlation between days on study and tumor shrinkage versus expression profile of CD36 and CD47 was analyzed (FIG. 4). The general expression profile of CD36 and CD47 has been assessed by IHC on Tumor Tissue Microarrays (TMAs), which contain biopsy samples collected from pancreatic cancer patients. TMAs were purchased from commercial sources, not related to the VT1021-01 clinical study.
FIG. 5A and FIG. 5 B are charts showing that VT1021 modulates the TME in pancreatic cancer. Modulation of the TME by VT1021 in paired biopsies from subjects with pancreatic cancer was assessed by multiplex ion beam image analysis. Representative images from 1 of 3 regions of interest in tumor biopsies from a subject obtained pre-treatment (pre) and on-study (on). […] TSP-1+increased >2 fold in on-study biopsies compared to pre-treatment, both the CTL/Treg and M1/M2 macrophage ratios increased and the percent of M1 macrophages increased >3 fold in the TME after treatment with VT1021.

[2] = system: subjects with rGBM; assay: Phase I/II clinical study (NCT03364400): adverse events in subjects with recurrent GBM
Method: VT1021 was evaluated in a recently completed phase I/II open-label, multicenter, dose escalation (Part 1) and expansion (Part 2) clinical study in advanced, refractory, solid tumors including recurrent GBM (rGBM) (NCT03364400). Thirty-two subjects with rGBM were dosed in Part 2, 22 of which were considered evaluable as having completed ≥1 cycle of VT1021 treatment and tumor imaging during cycle 2. […]

[3] = system: tumor microenvironment (TME) in rGBM; assay: IHC and multiplex ion beam imaging of immune cells in rGBM tumor biopsy pair; conditions: rGBM subject with CR
From the text: FIG. 11C is a bar graph of the change in the percentage of M1 and M2 macrophages in patient tumor tissue as determined by metal ion immunostaining.
FIG. 11E is a bar graph depicting the fold-change in cytotoxic T lymphocytes (CTLs) in patients prior to the onset of treatment with VT1021 (pre-treatment) and during treatment with VT1021 (On-Study) as determined by metal ion immunostaining.
FIG. 11F is a bar graph depicting the fold-change in total and monocytic myeloid derived suppressor cells (MDSCs) in patients prior to the onset of treatment with VT1021 (pre-treatment) and during treatment with VT1021 (On-Study) as determined by metal ion immunostaining.
The blood samples were collected from GBM subjects in the expansion phase, who were treated by VT1021 at 11.8 mg/kg, twice weekly, by IV infusion. VT1021 levels were measured and analyzed among male and female subjects (FIG. 7). Days on study have been collected from the same group of subjects (FIG. 8). […] CD36 and CD47 levels have been measured by immunohistochemistry assays in the pre-treatment tumor biopsy samples of the GBM subjects (FIG. 9, FIG. 10). Levels of Tsp-1 were measured by ELISA for circulating Tsp-1 levels in the collected blood samples, and by immunohistochemistry for the level of Tsp-1 accumulated in the tumor biopsy samples (FIG. 10). The infiltration of immune and inflammatory cells, specifically, MDSCs, T cells and macrophages, were determined by immunohistochemical analysis of the levels of cell surface markers in the tumor biopsy samples of subjects (FIG. 11).
FIG. 11A, FIG. 11B, FIG. 11C, FIG. 11D, FIG. 11E, and FIG. 11F are charts showing modulation of the immune system by VT1021 in circulation and in the TME. […] Proliferating CTLs increased ≥1.5 fold regardless of clinical response, proliferating helper T cells increased ≥1.5 fold in CR/PR and PD subjects while monocytic MDSCs (mMDSCs) and activated MDSCs decreased≤0.5 fold in all evaluable subjects. […] Percent of M1 increased 1.9-fold while M2 decreased 0.6-fold after treatment. […] CTLs increased >4 fold while total and mMDSCs […] >15 fold in the on-study biopsy compared to pre-treatment.

[4] = GBM, 32 Subjects, all cycles, maximum grade, regardless of causality
[5] = on-study biopsy vs pre-treatment, multiplex ion beam imaging, increased

cyclic DWLPK (also: cyclic, mode of cyclisation not given here) [VT1021, 5-amino acid cyclic peptide from prosaposin; Tsp-1-inducing agent]
CTL/Treg ratio in the TME after treatment [1]: increased
M1/M2 macrophage ratio in the TME after treatment [1]: increased
TSP-1+ mean intensity, increase on-study vs pre-treatment [1]: > 2 fold
percent of M1 macrophages, increase in the TME after treatment [1]: > 3 fold
Abdominal Pain (AE), All Grades [2, 4]: 5
Abdominal Pain (AE), Grade 1-2 [2, 4]: 5
Diarrhea (AE), All Grades [2, 4]: 4
Diarrhea (AE), Grade 1-2 [2, 4]: 4
Fall (AE), All Grades [2, 4]: 9
Fall (AE), Grade 1-2 [2, 4]: 9
Infusion reaction (AE), All Grades [2, 4]: 3
Infusion reaction (AE), Grade 1-2 [2, 4]: 3
Nausea (AE), All Grades [2, 4]: 3
Nausea (AE), Grade 1-2 [2, 4]: 3
Vomiting (AE), All Grades [2, 4]: 3
Vomiting (AE), Grade 1-2 [2, 4]: 2
Vomiting (AE), Grade 3-4 [2, 4]: 1
major adverse events (AEs) ([2]; phase I/II study, solid tumors including rGBM): no major adverse events
M2 macrophages, fold change ([3]; biopsy pair pre-treatment vs on-study, decreased): 0.6 fold
Percent of M1 macrophages, fold change ([3]; biopsy pair pre-treatment vs on-study, increased): 1.9 fold
CTLs, fold change [3, 5]: > 4 fold
mMDSCs, fold change [3, 5]: > 15 fold
total MDSCs, fold change [3, 5]: > 15 fold

Reference: US20250041379A1, “METHODS AND COMPOSITIONS FOR THE TREATMENT OF CANCER” (Vigeo Therapeutics, Inc., priority 2021, published 2025)
